Where two headings read alike, the source gives them in different places.
Tests used:
[1] = target: T1, human long-form TSLP protein (Acro, tsp-h5255 or tsp-h52ha) (human, UniProt Q969D9 29-159); assay: ELISA on coated human long-form TSLP, OD450; unit taken from the concentration axis
T1 construct: If it was tsp-h52ha, this is the same molecule as m12 (His-tagged); also called human TSLP protein

[2] = target: T2, human long form TSLP expressed on cell membrane; assay: FACS on cells expressing the membrane human long-form TSLP fusion protein, MFI; unit taken from the concentration axis
T2 construct: also called membrane long-form huTSLP fusion protein; membrane long-form TSLP fusion protein

[3] = target: T2, human long form TSLP expressed on cell …; assay: as above; remark: listed apart in the source
[4] = target: T2, human long form TSLP expressed on cell …; assay: as above; remark: listed apart in the source
[5] = target: T2, human long form TSLP expressed on cell …; assay: as above; remark: listed apart in the source
[6] = target: T2, human long form TSLP expressed on cell …; assay: FACS on cells expressing the membrane human long-form TSLP fusion protein, MFI; rising binding curve, but the table column is headed IC50; unit taken from the concentration axis
[7] = target: T3, mouse long-form TSLP protein (ACRO, tsp-m52h8) (mouse, UniProt Q9JIE6 20-140); assay: ELISA on coated mouse long-form TSLP
T3 construct: Bought; also called mouse TSLP
T3 sequence (looked up): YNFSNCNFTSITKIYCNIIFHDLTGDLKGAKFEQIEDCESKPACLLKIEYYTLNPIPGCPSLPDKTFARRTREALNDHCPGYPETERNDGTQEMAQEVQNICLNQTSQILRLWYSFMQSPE

[8] = target: T1, human long-form TSLP protein (Acro, …); assay: BLI (Gator, HFC probe), antibody loaded at 10 ug/ml, TSLP at 50 to 1.56 nM
[9] = target: T1, human long-form TSLP protein (Acro, …); assay: ELISA on coated human long-form TSLP, OD450; unit taken from the concentration axis; remark: listed apart in the source
[10] = target: T1, human long-form TSLP protein (Acro, …); assay: as above; remark: listed apart in the source
[11] = target: T4, cynomolgus long-form TSLP protein (ACRO, tsp-c52h8) (cynomolgus monkey, UniProt A0A7N9CAT7 29-159); assay: ELISA on coated cynomolgus long-form TSLP, OD450; ambiguous fit of a flat curve (Bottom 0.06295, Top ~ 145.1), see non_binding; unit taken from the concentration axis
T4 construct: also called monkey long-form TSLP; Cyno TSLP
T4 sequence: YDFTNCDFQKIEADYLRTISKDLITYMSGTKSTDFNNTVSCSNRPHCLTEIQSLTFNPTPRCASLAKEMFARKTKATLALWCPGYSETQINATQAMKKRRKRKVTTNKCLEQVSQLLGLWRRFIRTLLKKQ

[12] = target: T5, membrane short-form huTSLP fusion protein (human); assay: FACS on cells expressing membrane short-form huTSLP, MFI; ambiguous fit of a flat curve (Bottom 895.5, Top 876.2), see non_binding; unit taken from the concentration axis
T5 construct: also called human short form TSLP expressed on cell membrane

[13] = target: T4, cynomolgus long-form TSLP protein …; assay: ELISA on coated cynomolgus long-form TSLP, OD450; ambiguous fit of a flat curve (Bottom 0.06800, Top ~ 0.8608), see non_binding; unit taken from the concentration axis
[14] = target: T5, membrane short-form huTSLP fusion …; assay: FACS on cells expressing membrane short-form huTSLP, MFI; ambiguous fit of a flat curve (Bottom 712.4, Top 749.3), see non_binding; unit taken from the concentration axis

T1 sequence (Q969D9 29-159 R127A/R130A limits assumed): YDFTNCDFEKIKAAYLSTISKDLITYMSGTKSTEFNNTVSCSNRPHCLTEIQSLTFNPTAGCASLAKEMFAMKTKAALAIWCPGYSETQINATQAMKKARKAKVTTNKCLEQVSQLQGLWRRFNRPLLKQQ
T2 sequence (chain, as listed by the source): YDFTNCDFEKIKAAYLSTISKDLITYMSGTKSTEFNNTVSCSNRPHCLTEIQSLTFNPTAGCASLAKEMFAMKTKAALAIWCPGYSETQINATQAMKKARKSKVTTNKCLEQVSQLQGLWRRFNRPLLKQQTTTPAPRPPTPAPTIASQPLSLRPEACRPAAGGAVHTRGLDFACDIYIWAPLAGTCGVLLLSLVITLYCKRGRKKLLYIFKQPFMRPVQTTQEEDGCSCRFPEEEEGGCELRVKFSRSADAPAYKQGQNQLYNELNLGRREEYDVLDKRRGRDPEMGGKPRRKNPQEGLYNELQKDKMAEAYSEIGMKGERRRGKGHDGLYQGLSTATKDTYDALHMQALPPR
T5 sequence (chain, as listed by the source limits assumed): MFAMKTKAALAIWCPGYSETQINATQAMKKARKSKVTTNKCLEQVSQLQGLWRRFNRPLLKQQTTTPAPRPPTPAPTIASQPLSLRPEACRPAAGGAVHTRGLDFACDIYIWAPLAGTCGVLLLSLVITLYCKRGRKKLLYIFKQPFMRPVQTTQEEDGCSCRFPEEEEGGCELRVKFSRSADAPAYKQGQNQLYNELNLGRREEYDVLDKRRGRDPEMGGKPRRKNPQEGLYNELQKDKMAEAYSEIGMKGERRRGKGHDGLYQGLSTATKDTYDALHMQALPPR

B1: Chi39H11 (antibody, human IgG2, V domains shown)
VH: QVQLQQSGAELVRPGSSVKISCKASGYAFSSYWMNWVKQRPGQGLEWIGQIFPGDGETNYNGKFKGKATLTADKSSSTAYMQLSSLTSEDSAVYFCARGGYVNFLYAMDYWGQGTSVTVSS
VL: EIVLTQSPALMAASPGEKVTITCSVSSSISSSNLHWYQQKSETSPKPWIYGTSTLASGVPVRFSGSGSGTSYSLTISSMEAEDAATYYCQQWSSYPLTFGAGTKLELK
notes: also called 39H11 chimeric antibody
[1]
  EC50: 0.0325 µg/mL
[2]
  EC50: 0.228 µg/mL
[3]
  EC50: 0.0953 µg/mL
[4]
  EC50: 0.111 µg/mL

B2: 39H11Z07 (antibody, human IgG2, kappa)
heavy: QVQLVQSGAEVKKPGSSVKVSCKASGYAFSSYWMNWVRQAPGQGLEWMGQIFPGDGETNYNGKFKGRVTITADKSTSTAYMELSSLRSEDTAVYYCARGGYVNFLYAMDYWGQGTTVTVSSASTKGPSVFPLAPCSRSTSESTAALGCLVKDYFPEPVTVSWNSGALTSGVHTFPAVLQSSGLYSLSSVVTVPSSNFGTQTYTCNVDHKPSNTKVDKTVERKCCVECPPCPAPPVAGPSVFLFPPKPKDTLMISRTPEVTCVVVDVSHEDPEVQFNWYVDGVEVHNAKTKPREEQFNSTFRVVSVLTVVHQDWLNGKEYKCKVSNKGLPAPIEKTISKTKGQPREPQVYTLPPSREEMTKNQVSLTCLVKGFYPSDISVEWESNGQPENNYKTTPPMLDSDGSFFLYSKLTVDKSRWQQGNVFSCSVMHEALHNHYTQKSLSLSPGK
light: EIVMTQSPATLSVSPGERATLSCSVSSSISSSNLHWYQQKPGQSPRPWIYGTSTLASGIPARFSGSGSGTEFTLTISSLQSEDFAVYYCQQWSSYPLTFGGGTKVEIKRTVAAPSVFIFPPSDEQLKSGTASVVCLLNNFYPREAKVQWKVDNALQSGNSQESVTEQDSKDSTYSLSSTLTLSKADYEKHKVYACEVTHQGLSSPVTKSFNRGEC
notes: also called 39H11Z07-IgG2
[3]
  EC50: 0.079 µg/mL

B3: 39H11Z11 (antibody, human IgG2, V domains shown)
VH: QVQLVQSGAEVKKPGASVKVSCKASGYAFSSYWMNWVRQAPGQGLEWMGQIFPGDGETNYNGKFKGRVTMTRDTSTSTVYMELSSLRSEDTAVYYCARGGYVNFLYAMDYWGQGTTVTVSS
VL: EIVMTQSPATLSVSPGERATLSCSVSSSISSSNLHWYQQKPGQSPRPWIYGTSTLASGIPARFSGSGSGTEFTLTISSLQSEDFAVYYCQQWSSYPLTFGGGTKVEIK
[4]
  EC50: 0.129 µg/mL

B4: Chi35G12 (antibody, human IgG2, V domains shown)
VH: QVQLQQSGAELVRPGSSVKISCKSSGYAFSSYWMNWVKQRPGQGLEWIGQIFPGDGDTTYNGNFKGKTTLTADKSSNTAYMQLSSLTSEDSAVYFCARSGFDYGYFYAMDYWGQGTSVTVSS
VL: EIVLTQSPTLMAASPGEKVTITCSVSSSISSSNLHWYQQKSETSPKPWIFGTSNLASGVPVRFSGSGSGTSYSLTISNMEAEDAATYYCQQWSSYPLTFGAGTKLELK
notes: also called 35G12 chimeric antibody
[5]
  EC50: 0.173 µg/mL
[6]
  EC50: 0.403 µg/mL

B5: 35G12Z01 (antibody, human IgG2, V domains shown)
VH: QVQLVQSGAEVKKPGASVKVSCKSSGYAFSSYWMNWVRQAPGQGLEWMGQIFPGDGDTTYNGNFKGRVTMTRDTSTSTVYMELSSLRSEDTAVYYCARSGFDYGYFYAMDYWGQGTTVTVSS
VL: EIVMTQSPATLSVSPGERATLSCSVSSSISSSNLHWYQQKPGQSPRPWIFGTSNLASGIPARFSGSGSGTEFTLTISSLQSEDFAVYYCQQWSSYPLTFGGGTKVEIK
[5]
  EC50: 0.158 µg/mL

B6: 35G12Z02 (antibody, human IgG2, V domains shown)
VH: EVQLVQSGAEVKKPGESLKISCKSSGYAFSSYWINWVRQMPGKGLEWMGQIFPGDGDTTYNGNFKGQVTISADKSISTAYLQWSSLKASDTAMYYCARSGFDYGYFYAMDYWGQGTTVTVSS
VL: EIVMTQSPATLSVSPGERATLSCSVSSSISSSNLHWYQQKPGQSPRPWIFGTSNLASGIPARFSGSGSGTEFTLTISSLQSEDFAVYYCQQWSSYPLTFGGGTKVEIK
[5]
  EC50: 0.174 µg/mL

B7: 35G12Z03 (antibody, human IgG2, kappa)
heavy: QVQLVQSGAEVKKPGSSVKVSCKSSGYAFSSYWINWVRQAPGQGLEWMGQIFPGDGDTTYNGNFKGRVTITADKSTSTAYMELSSLRSEDTAVYYCARSGFDYGYFYAMDYWGQGTTVTVSSASTKGPSVFPLAPCSRSTSESTAALGCLVKDYFPEPVTVSWNSGALTSGVHTFPAVLQSSGLYSLSSVVTVPSSNFGTQTYTCNVDHKPSNTKVDKTVERKCCVECPPCPAPPVAGPSVFLFPPKPKDTLMISRTPEVTCVVVDVSHEDPEVQFNWYVDGVEVHNAKTKPREEQFNSTFRVVSVLTVVHQDWLNGKEYKCKVSNKGLPAPIEKTISKTKGQPREPQVYTLPPSREEMTKNQVSLTCLVKGFYPSDISVEWESNGQPENNYKTTPPMLDSDGSFFLYSKLTVDKSRWQQGNVFSCSVMHEALHNHYTQKSLSLSPGK
light: EIVMTQSPATLSVSPGERATLSCSVSSSISSSNLHWYQQKPGQSPRPWIFGTSNLASGIPARFSGSGSGTEFTLTISSLQSEDFAVYYCQQWSSYPLTFGGGTKVEIKRTVAAPSVFIFPPSDEQLKSGTASVVCLLNNFYPREAKVQWKVDNALQSGNSQESVTEQDSKDSTYSLSSTLTLSKADYEKHKVYACEVTHQGLSSPVTKSFNRGEC
notes: also called 35G12Z03-IgG2
[5]
  EC50: 0.159 µg/mL

B8: mAb35G12 (antibody)
heavy: QVQLVQSGAEVKKPGSSVKVSCKSSGYAFSSYWINWVRQAPGQGLEWMGQIFPGDGDTTYNGNFKGRVTITADKSTSTAYMELSSLRSEDTAVYYCARSGFDYGYFYAMDYWGQGTTVTVSSASTKGPSVFPLAPCSRSTSESTAALGCLVKDYFPEPVTVSWNSGALTSGVHTFPAVLQSSGLYSLSSVVTVPSSSLGTKTYTCNVDHKPSNTKVDKRVESKYGPPCPPCPAPEAAGGPSVFLFPPKPKDTLYITREPEVTCVVVDVSQEDPEVQFNWYVDGVEVHNAKTKPREEQFNSTYRVVSVLTVLHQDWLNGKEYKCKVSNKGLPSSIEKTISKAKGQPREPQVYTLPPSQEEMTKNQVSLTCLVKGFYPSDIAVEWESNGQPENNYKTTPPVLDSDGSFFLYSRLTVDKSRWQEGNVFSCSVMHEALHNHYTQKSLSLSLG
light: EIVMTQSPATLSVSPGERATLSCSVSSSISSSNLHWYQQKPGQSPRPWIFGTSNLASGIPARFSGSGSGTEFTLTISSLQSEDFAVYYCQQWSSYPLTFGGGTKVEIK
notes: not shown: human kappa light chain constant region ('its corresponding light chain vector')
[7]
  binding result: no binding (tested: about 20 µg/mL)
[8]
  Kd: 1.98 nM
[9]
  EC50: 0.122 µg/mL
[10]
  EC50: 0.206 µg/mL
[11]
  EC50: ~51.9 µg/mL
[12]
  EC50: ~0.384 µg/mL

B9: mAb39H11 (antibody, IgG4)
heavy: QVQLVQSGAEVKKPGSSVKVSCKASGYAFSSYWMNWVRQAPGQGLEWMGQIFPGDGETNYNGKFKGRVTITADKSTSTAYMELSSLRSEDTAVYYCARGGYVNFLYAMDYWGQGTTVTVSSASTKGPSVFPLAPCSRSTSESTAALGCLVKDYFPEPVTVSWNSGALTSGVHTFPAVLQSSGLYSLSSVVTVPSSSLGTKTYTCNVDHKPSNTKVDKRVESKYGPPCPPCPAPEAAGGPSVFLFPPKPKDTLYITREPEVTCVVVDVSQEDPEVQFNWYVDGVEVHNAKTKPREEQFNSTYRVVSVLTVLHQDWLNGKEYKCKVSNKGLPSSIEKTISKAKGQPREPQVYTLPPSQEEMTKNQVSLTCLVKGFYPSDIAVEWESNGQPENNYKTTPPVLDSDGSFFLYSRLTVDKSRWQEGNVFSCSVMHEALHNHYTQKSLSLSLG
light: EIVMTQSPATLSVSPGERATLSCSVSSSISSSNLHWYQQKPGQSPRPWIYGTSTLASGIPARFSGSGSGTEFTLTISSLQSEDFAVYYCQQWSSYPLTFGGGTKVEIK
notes: as for B8
[7]
  binding result: no binding (tested: about 20 µg/mL)
[8]
  Kd: 2.1 nM
[9]
  EC50: 0.149 µg/mL
[10]
  EC50: 0.153 µg/mL
[13]
  EC50: ~23.8 µg/mL
[14]
  EC50: ~0.134 µg/mL

Reference: patent US20250051433A1 (INMAGENE PTE, published 2025)
